± gives the standard error. For some assays here: Variants at the floor of the assay were thinned out.
B1: glmS ribozyme (parent)
chain: AUAAAAGCGCCAGAACUACAGAAAUGUAGUUGACGAGGAGGAGGUUUAUCGAAUUUUCGGCGGAUGCCUCCAAA

Columns and labels:
Details in all cases: with glucosamine-6-phosphate
glucosamine-6-phosphate [1] = variants of: B1; assay: kcat; higher = faster cleavage; RNA array
Summary of the method: (§1)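 Tiles of sequenced MiSeq chips were imaged over ~14 h at 37 °C. On them, barcoded ribozyme variants had been transcribed in situ by E. coli RNA polymerase and were tracked via a hybridised Cy3 probe while glucosamine-6-phosphate (40 μM to 10 mM) in HEPES/KCl/Mg(OAc)2 buffer flowed in. Per-tile medians, normalised to baseline and to non-cleaving reference variants, were fit to one- or two-exponential decays for kobs, and weighted Michaelis–Menten fits gave kcat and KM.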

glucosamine-6-phosphate [2] = variants of: B1; assay: KM; higher = weaker cofactor use; RNA array
Summary of the method: as §1

glucosamine-6-phosphate [3] = variants of: B1; assay: self-cleavage kobs at 40 uM GlcN6P; higher = faster cleavage; RNA array
Summary of the method: as §1

glucosamine-6-phosphate [4] = variants of: B1; assay: self-cleavage kobs at 160 uM GlcN6P; higher = faster cleavage; RNA array
Summary of the method: as §1

glucosamine-6-phosphate [5] = variants of: B1; assay: self-cleavage kobs at 640 uM GlcN6P; higher = faster cleavage; RNA array
Summary of the method: as §1

glucosamine-6-phosphate [6] = variants of: B1; assay: self-cleavage kobs at 2500 uM GlcN6P; higher = faster cleavage; RNA array
Summary of the method: as §1

glucosamine-6-phosphate [7] = variants of: B1; assay: self-cleavage kobs at 10000 uM GlcN6P; higher = faster cleavage; RNA array
Summary of the method: as §1

Row | Variant | kcat (glucosamine-6-phosphate [1]) [s⁻¹] | KM (glucosamine-6-phosphate [2]) [µM] | self-cleavage kobs at 40 uM GlcN6P (glucosamine-6-phosphate [3]) [s⁻¹] | self-cleavage kobs at 160 uM GlcN6P (glucosamine-6-phosphate [4]) [s⁻¹] | self-cleavage kobs at 640 uM GlcN6P (glucosamine-6-phosphate [5]) [s⁻¹] | self-cleavage kobs at 2500 uM GlcN6P (glucosamine-6-phosphate [6]) [s⁻¹] | self-cleavage kobs at 10000 uM GlcN6P (glucosamine-6-phosphate [7]) [s⁻¹]
1 | U54G U56A G66A | 0.00395 ± 0.00074 | 1470 ± 370 | 0.000108 ± 1.7e-05 | 0.000344 ± 5.5e-05 | 0.00162 ± 0.00028 | 0.00236 ± 0.00049 | 0.00335 ± 0.00067
2 | A15G G32C | 0.000278 ± 6.2e-05 | 8170 ± 3300 | – | – | – | 6.16e-05 ± 1.6e-05 | 0.000154 ± 2e-05
3 | U45A | 0.0731 ± 0.026 | 1680 ± 700 | 0.00192 ± 4e-05 | 0.00532 ± 0.00022 | 0.0167 ± 0.00063 | 0.0529 ± 0.0042 | 0.0751 ± 0.0041
4 | C11U C68A C71G | 5.97e-05 ± 2.3e-05 | – | – | – | 0.000101 ± 2.3e-05 | – | –
5 | G13U A15C U54C | 0.000132 ± 1.2e-05 | – | – | – | – | 0.00013 ± 3.3e-05 | 0.000122 ± 1.9e-05
6 | U46A C68A | 1.9e-05 ± 7.6e-06 | – | < 1e-05 | – | – | – | –
7 | U30A G60A | < 1e-05 | – | < 1e-05 | – | < 1e-05 | – | –
8 | A12U A42C | 2.16e-05 ± 2.9e-06 | – | < 1e-05 | – | – | 1.75e-05 ± 7.1e-06 | 1.89e-05 ± 8.5e-06
9 | A14G G43U | 0.000159 ± 2.6e-05 | 2770 ± 980 | – | – | 3.9e-05 ± 8.4e-06 | 6.85e-05 ± 8.5e-06 | 0.000131 ± 1.5e-05
10 | U65A G66A C67G C71U | 8.39e-05 ± 1.9e-05 | – | – | – | – | 8.49e-05 ± 2.1e-05 | 6.69e-05 ± 1.9e-05
11 | A6G U69A | < 1e-05 | – | – | < 1e-05 | – | – | < 1e-05
12 | C11U C67G | 0.000216 ± 2.7e-05 | 633 ± 220 | 2.61e-05 ± 1.2e-05 | 4.28e-05 ± 9.2e-06 | 0.000102 ± 1e-05 | 0.000218 ± 2.2e-05 | 0.000189 ± 1.7e-05
13 | G40U G59A | < 1e-05 | – | – | < 1e-05 | < 1e-05 | – | –
14 | A15G G66U | 0.00552 ± 0.0016 | 5370 ± 2200 | 6.81e-05 ± 1.4e-05 | 0.000169 ± 3.6e-05 | 0.000492 ± 9.7e-05 | 0.00161 ± 0.00029 | 0.00374 ± 0.00049
15 | U46C A48C | 0.000204 ± 4.7e-05 | – | – | – | – | 8.54e-05 ± 2.8e-05 | 0.000136 ± 2.8e-05
16 | U54C U69A | 0.000112 ± 7.5e-06 | 82 ± 22 | 3.96e-05 ± 1.5e-05 | 6.58e-05 ± 2.2e-05 | 0.000111 ± 3.8e-05 | 0.000123 ± 3.1e-05 | 0.000105 ± 2e-05

Row | Variant | kcat (glucosamine-6-phosphate [1]) [s⁻¹] | KM (glucosamine-6-phosphate [2]) [µM] | self-cleavage kobs at 40 uM GlcN6P (glucosamine-6-phosphate [3]) [s⁻¹] | self-cleavage kobs at 160 uM GlcN6P (glucosamine-6-phosphate [4]) [s⁻¹] | self-cleavage kobs at 640 uM GlcN6P (glucosamine-6-phosphate [5]) [s⁻¹] | self-cleavage kobs at 2500 uM GlcN6P (glucosamine-6-phosphate [6]) [s⁻¹] | self-cleavage kobs at 10000 uM GlcN6P (glucosamine-6-phosphate [7]) [s⁻¹]
17 | A12C U45C | 0.00344 ± 0.0011 | 7280 ± 3000 | 3e-05 ± 1.2e-05 | 5.84e-05 ± 2.1e-05 | 0.000289 ± 7.9e-05 | 0.000907 ± 0.00016 | 0.00194 ± 0.00049
18 | G41C U54G | 0.000435 ± 5.6e-05 | 1610 ± 450 | – | – | 0.000123 ± 2.4e-05 | 0.000354 ± 8.9e-05 | 0.000363 ± 4.8e-05
19 | A15G A64U | 0.000233 ± 2.7e-05 | 3870 ± 820 | – | – | 3.22e-05 ± 9e-06 | 9.11e-05 ± 1.2e-05 | 0.000169 ± 2.4e-05
20 | U31A G41A | 0.000876 ± 0.00042 | – | – | 8.73e-05 ± 1.5e-05 | 0.000163 ± 3.6e-05 | 0.00078 ± 0.00012 | 0.000647 ± 0.00014
21 | A48G U57C C61A | < 1e-05 | – | – | – | – | < 1e-05 | –
22 | U46A U54G | 0.00254 ± 0.00049 | 1180 ± 400 | 8.77e-05 ± 2e-05 | 0.000213 ± 5.2e-05 | 0.00113 ± 0.00014 | 0.00191 ± 0.00028 | 0.00205 ± 0.00028
23 | U46G A53U | 0.006 ± 0.0013 | 2190 ± 770 | 0.000116 ± 2.4e-05 | – | 0.00141 ± 0.00032 | 0.00253 ± 0.00059 | 0.00566 ± 0.00098
24 | A33U U54A C68A | 2.8e-05 ± 3.4e-06 | – | – | – | – | – | –
25 | U57G C58G C68U | 4.52e-05 ± 1.6e-05 | – | – | – | 7.15e-05 ± 2.1e-05 | – | –
26 | U30G C68U | 0.00118 ± 0.00027 | 3820 ± 1500 | – | – | 0.000154 ± 3.1e-05 | 0.000642 ± 0.00015 | 0.000827 ± 0.00013
27 | C34G U69A | 3.79e-05 ± 1.1e-05 | – | – | – | 5.16e-05 ± 1.3e-05 | 3.05e-05 ± 1.3e-05 | –
28 | A6U C16G U55A | 1.73e-05 ± 5.1e-06 | – | – | – | – | – | –
29 | A42G U57A | 0.000299 ± 4.6e-05 | – | < 1e-05 | – | 0.000118 ± 3.7e-05 | 0.000351 ± 0.00012 | 0.000266 ± 4.4e-05
30 | A15U C70G | 7.6e-05 ± 6.8e-06 | 175 ± 85 | – | 4.66e-05 ± 1.1e-05 | 5.16e-05 ± 7.6e-06 | 7.05e-05 ± 8.4e-06 | 8.19e-05 ± 9.8e-06
31 | U55G C58A | 0.000783 ± 0.00021 | 7730 ± 3000 | – | 2.76e-05 ± 1.3e-05 | 6.45e-05 ± 1e-05 | 0.000177 ± 2.2e-05 | 0.000461 ± 6.3e-05
32 | U55C C70U | 0.00171 ± 0.00048 | 5960 ± 3000 | 2.44e-05 ± 9e-06 | 7.16e-05 ± 3e-05 | 0.000172 ± 4.7e-05 | 0.000413 ± 8.4e-05 | 0.00111 ± 0.00012
